Data published in paper PMC2396876 (The EMBO Journal, 2008).
Where “and” joins values, the source holds several entries; their conditions need not be identical. Equal values may be shown once.

How the values were obtained:
[1] = target: UspA1^(527–665) M586A (Moraxella catarrhalis (strain MX2)); test: western blot of oligomers
[2] = target: UspA1^(527–665) A588Q (Moraxella catarrhalis (strain MX2)); test: western blot of oligomers
[3] = target: N‐CEACAM1, the N‐terminal domain of human carcinoembryonic antigen‐related cell adhesion molecule 1 (human); test: AUC
[4] = target: UspA1^(527–665), recombinant fragment of the Moraxella catarrhalis MX2 adhesin UspA1 (Moraxella catarrhalis (strain MX2)); test: AUC
[5] = target: UspA1^(527–665), recombinant fragment of the Moraxella catarrhalis MX2 adhesin UspA1 (Moraxella catarrhalis (strain MX2)); test: ITC
[6] = target: UspA1^(527–665) A590Q (Moraxella catarrhalis (strain MX2)); test: western blot of oligomers
[7] = target: UspA1^(527–665) M586A (Moraxella catarrhalis (strain MX2)); test: far-Western, overlay or dot blot
[8] = target: UspA1^(527–665) M586A/A588Q (Moraxella catarrhalis (strain MX2)) (UniProt Q9XD56); test: far-Western, overlay or dot blot
[9] = target: UspA1^(527–665), recombinant fragment of the Moraxella catarrhalis MX2 adhesin UspA1 (Moraxella catarrhalis (strain MX2)); test: crystal structure
[10] = target: UspA1^(527–665) A568Q (Moraxella catarrhalis (strain MX2)); test: western blot of oligomers
[11] = target: UspA1^(527–665) L583A (Moraxella catarrhalis (strain MX2)); test: western blot of oligomers
[12] = target: the molecule itself; test: western blot of oligomers

“UspA1^(527–665) M586A (domain or fragment)” gave a stoichiometry N (chains in the oligomer) [1] of 3.

In the case of “UspA1^(527–665) A588Q (domain or fragment)”, the stoichiometry N (chains in the oligomer) [2] is reported as 3.

“N‐CEACAM1, the N‐terminal domain of human carcinoembryonic antigen‐related cell adhesion molecule 1 (domain or fragment)” showed a stoichiometry N (chains in the oligomer) [3] of 2, a stoichiometry N (N‐CEACAM1 per UspA1^(527–665) trimer) [4] of 2 and a Kd [5] of 35 nM. The stoichiometry N (N‐CEACAM1 per UspA1^(527–665) trimer) [5] was 2.1 and 1.9.

Molecule “UspA1^(527–665) A590Q (domain or fragment)” has a stoichiometry N (chains in the oligomer) [6] of 3.

In the case of “soluble CEACAM1‐Fc receptor (from UniProt P13688 35-428) (Fc fusion)”, the decrease in CEACAM1 binding (densitometry, against native UspA1^(527–665)) [7] is reported as 14.8% and the decrease in CEACAM1 binding (densitometry, against native UspA1^(527–665)) [8] is reported as 90.4%.

For “UspA1^(527–665), recombinant fragment of the Moraxella catarrhalis MX2 adhesin UspA1 (domain or fragment)”, the stoichiometry N (chains in the oligomer) [9] was 3 and the stoichiometry N (chains in the oligomer) [4] was 3.

Molecule “UspA1^(527–665) A568Q (domain or fragment)” has a stoichiometry N (chains in the oligomer) [10] of 3.

“UspA1^(527–665) L583A (domain or fragment)” showed a stoichiometry N (chains in the oligomer) [11] of 3.

B1: UspA1^(527–665) M586A/A588Q (domain or fragment, Moraxella catarrhalis (strain MX2), UniProt Q9XD56 527-665, looked up)
chain: ASSANTDRIATAELGIAENKKDAQIAKAQANENKDGIAKNQADIQLHDKKITNLGILHSAVQRAVGNNTQGVATNKADIAKNQADIANNIKNIYELAQQQDQHSSDIKTLAKVSAANTDRIAKNKAEADASFETLTKNQ
In the case of B1, the “stoichiometry N” value [12] is reported as 3 chains in the oligomer.
